Data set [1] has as its system VchCAST RNA-guided transposition machinery (E. coli BL21(DE3) host, lacZ target). Nature of the data set: relative integration efficiency (T-LR orientation) vs wild-type transposon end (log2 (normalized fold change)); transposon end mutated: left end; higher = more efficient transposition. The essentials:
(§1)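 Each barcoded pool, 1549 left-end or 1849 right-end transposon variants in a pUC57 mini-transposon donor, went into E. coli BL21(DE3) with a T7-driven effector plasmid (CRISPR array, tniQ-cas8-cas7-cas6, tnsA-tnsB-tnsC). Plates contained 0.1 mM IPTG and were held at 37°C for 18 h. Input plasmids and genomic integration junctions were PCR-amplified and read by Illumina sequencing, with two biological output replicates and four reference barcodes. Relative integration efficiency is the fold change of output over input barcode abundance, normalised to the reference barcodes and log-transformed.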

Data set [2] shares this test system. Nature of the data set: relative integration efficiency (T-RL orientation) vs wild-type transposon end (log2 (normalized fold change)); transposon end mutated: left end; higher = more efficient transposition. The essentials: as §1

The values that follow come from the supplement of paper PMC10201428.

± gives the standard deviation of the averaged measurements. Bounds are passed on as bounds.

Turning to “AATGTTGTTGATGCAACCATAAAGTGATATTTAATAATTATTTATAATCAGCAACTTAACCACAAAAGTTGGTATATAACTATAGAGACAAAACAACCATAAGTTGATATTTTTGTGAATCGAGTATTTCAGCAAAACTACTGCAGTAAGAA”, the “relative integration efficiency (log2)” value in data set [1] was -1.8 ± 1.5; in data set [2], -2.65 ± 1.1.
On to “AATGTTGTTGATGCAACCATAAAGTGATATTTAATAATTATTTATAATCAGCAACTTAACCACAAAACAACCATAAAATGATAATTAACAAAAGTTGGTATTCAACTATAAAATGTGAATCGAGTATTTCAGCAAAACTACTGCAGTAAGAA”, for which the “relative integration efficiency (log2)” value in data set [1] is -1.31 ± 1.8; in data set [2] it was -2.67 ± 1.1.
On to “AATGTTGTTGATGCACCCATAAATTGATAATTAATAATTATTTATAATCAGCAACTTAACCACAAAACAACCATAAAATGATAATTAACAAAAGTTGGTATTCAACTATAAAATGTGAATCGAGTATTTCAGCAAAACTACTGCAGTAAGAA”, for which the “relative integration efficiency (log2)” value in data set [1] is -0.947 ± 1.4; in data set [2] it was -2.86 ± 1.1.
Take “AATGTTGTTGATGCAACCATAAAGTGATATTTAATCAACCATATATTGATATCTCAATTATTTATAATCAGCAACTTAACCACAAAAACAAAACAACCATAAGTTGATATTTTTGTGAATCGAGTATTTCAGCAAAACTACTGCAGTAAGAA”: the “relative integration efficiency (log2)” value in data set [1] was -0.334 ± 1.6; in data set [2], -2.99 ± 0.87.
As to “AATGTTGTTGATGCAACCATATTCACATATTTAATAATTATTTATAATCAGCAACTTAACCACAAAACAACCATAATAACATATCTCACAAAACAACCATATCAACATATTTTTGTGAATCGAGTATTTCAGCAAAACTACTGCAGTAAGAA”, the “relative integration efficiency (log2)” value in data set [1] was < -10; in data set [2], -7.41 ± 0.33.
On to “AATGTTGTTGATGCAACCATAAAGTGATATTTACCGACTGTCTGCCATCAGCCGCTTAACCGCAGCCCAACCATATATTGATATCTCACAAAACAACCATAAGTTGATATTTTTGTGAATCGAGTATTTCAGCAAAACTACTGCAGTAAGAA”, for which the “relative integration efficiency (log2)” value in data set [1] is -3.56 ± 0.14; in data set [2], -3.07 ± 0.93.
In the case of “AATGTTGTTGATGCAACCATAAAGTGATATTTACGCACTCCGTAGCCATCTGGGGCACCGGACGCTCCAACCATATATTGATATCTCACAAAACAACCATAAGTTGATATTTTTGTGAATCGAGTATTTCAGCAAAACTACTGCAGTAAGAA”, the “relative integration efficiency (log2)” value in data set [1] was -3.42 ± 0.88; in data set [2], -2.64 ± 0.79.
For “AATGTTGTTGATGCAACCATAAAGTGATATTTAATAGTACTGCGCGACTGAAATCATCATTAAAACGCAACCATATATTGATATCTCACAAAACAACCATAAGTTGATATTTTTGTGAATCGAGTATTTCAGCAAAACTACTGCAGTAAGAA”, in that order: -3.4 ± 1.6 and -4.94 ± 0.88.
For “AATGTTGTTGATGCAACCATAAAGTGATATTTAATAATTATTTACAACCATATATTGATATCTCACAAAACAACCATAAGTTGATATTTTTGTGAATCGAGTATTTCAGCAAAACTACTGCAGTAAGAAAGTTACTTCGTGGTATGGGAGGA”, in that order: -1.76 ± 1 and -5.81 ± 1.1.
Consider “AATGTTGTTGATGCAACCATAAAGTGATATTTAGGCAGTGAGCGCAACGCAATTCTTAACCACAAAACAACCATATATTGATATCTCACAAAACAACCATAAGTTGATATTTTTGTGAATCGAGTATTTCAGCAAAACTACTGCAGTAAGAA”, for which the figures for the “relative integration efficiency (log2)” value in data set [1] and in data set [2] were -3.58 ± 0.71 and -4.22 ± 1.2, respectively.
With “AATGTTGTTGATGCAACCATAAAGTGATATTTAATAATTATTTATAACAACCATATATTGATATCTCTCAGCAACTTAACCACAAAAACAAAACAACCATAAGTTGATATTTTTGTGAATCGAGTATTTCAGCAAAACTACTGCAGTAAGAA”, the “relative integration efficiency (log2)” value was -2.66 ± 1.4 in data set [1] and -4.46 ± 0.052 in data set [2].
“AATGTTGTTGATGCAACCATAAAGTGATATTTAATAATTATTTATAATCAGCAACTTAACCACAAAACAACCATATATTGATATCTCACAAACAACCATAAGTTGATATTTTTGTGAATCGAGTATTTCAGCAAAACTACTGCAGTAAGAAA”: the figures for the “relative integration efficiency (log2)” value in data set [1] and in data set [2] were -0.446 ± 0.92 and -1.69 ± 0.68, respectively.
The like results for “AATGTTGTTGATGCAACCATAAAGTGATATTTAATAATTATTTATAATCAGCAACTTAACCACAAAACAACCATATATTGAGCGAGACACCCCACCAACGCCTGGTCGCGGGGGTGTCCGATCTGATTTCAGCAAAACTACTGCAGTAAGAA” were, in that order, -2.37 ± 1.7 and -4.19 ± 1.3.
For “AATGTTGTTGATGCACCCATAAATTGATAATTAATAATTATTTATAATCAGCAACTTAACCACAAAACAACCATAAAGTGATATTTAACAAAAGTTGGTATTCAACTATAAAATGTGAATCGAGTATTTCAGCAAAACTACTGCAGTAAGAA”, the “relative integration efficiency (log2)” value was -1.55 ± 1.7 in data set [1] and -2.92 ± 1.1 in data set [2].
Consider “AATGTTGTTGATGCACCCATAAATTGATAATTAATAATTATTTATAATCAGCAACTTAACCACAAAACAACCATAAGTTGATATTTTACAAAAGTTGGTATTCAACTATAAAATGTGAATCGAGTATTTCAGCAAAACTACTGCAGTAAGAA”, for which the “relative integration efficiency (log2)” value in data set [1] was -1.17 ± 0.98; in data set [2], -3.01 ± 1.1.
